To fix the notation:
B1: F1*; the commonest letter at each place (parent)
chain: GAGACCGCAACTGAAAAGTTGTTATCACTTGTCGTAAGACACTTTGGATGGGTTGAAGTTCTGCACGTAGAAGCAAAAGGC

The variants in this data set derive from B1. The data set is described as follows: fraction ligated after 30 min (ligated reads / total reads); higher = more ligase activity. The note with it: with F1*sub RNA substrate (template-directed ligation), 42 °C. In outline:
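The ligase ribozyme variants were produced by PCR amplification of oligo-pool templates, T7 transcription and purification on gel. Their ligated and unligated forms were gel-separated, then reverse transcribed with barcoded primers before MiSeq sequencing. Core bases were filtered at a quality of ≥20, and fraction ligated per variant was ligated reads over total reads.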
With A27G A39C, the fraction ligated came out at 0.8.
T43A T45A: the fraction ligated was 0.725.
Under T25C C26G stands 0.0807.
With T23G T32C the figure was 0.75; with C26T C40G, 0.817; with T25C C33G, 0.144.
Under G46A G47A stands 0.804.
As for T30G G47T, the fraction ligated turned out to be 0.15.
On to C26T G31A, for which the fraction ligated worked out at 0.342.
With A27T T45A the figure was 0.783; with G38T G47C, 0.114.
G47A A56C: the fraction ligated was determined as 0.125.
On to T23C T25G, for which the fraction ligated worked out at 0.672.
Under A24C A56C stands 0.0226.
Under C28T G46T stands 0.788; under T25C G55A, 0.784; under A27C A39T, 0.789.
With T30G T32G the figure was 0.865; with T30G C40G, 0.81; with T30G C40A, 0.854.
Turning to A37G G50A, the fraction ligated amounted to 0.659.
With C26G T43C the figure was 0.689.
With T32G A37T the figure was 0.825; with T35C T45C, 0.783; with G50T G55A, 0.455.
With A41G T44A the figure was 0.796.
In the case of T30C A56G, the fraction ligated turned out to be 0.764.
With T29G A39C the figure was 0.822; with A24T T49A, 0.8; with A24T T49C, 0.694.
Under A24C G34C stands 0.185.
With A27T A56C the figure was 0.787; with A27T A56T, 0.792; with G31C T43A, 0.807.
For T23A A56G, the fraction ligated was 0.686.
Under A27G G34A stands 0.831.
With G38A G50A the figure was 0.391; with C40G G50T, 0.548.
With G38A C42A the figure was 0.854.
As for T32A A48G, the fraction ligated turned out to be 0.749.
For T32C T45A, the fraction ligated was 0.726.
With A36C T45C the figure was 0.753; with C28G A39T, 0.755; with C26T A39T, 0.823.
With T32C A56C the figure was 0.727; with T32C A56T, 0.766.
Regarding A24C G46T, the fraction ligated was 0.0441.
Under T23C A27G stands 0.781.
Under T25G T43G stands 0.515; under C33T A41C, 0.789; under G34T, 0.848.
Under A27C C28G stands 0.807; under A36C G55A, 0.827; under T30G T45A, 0.76.
With T45C A56G, the fraction ligated amounted to 0.569.
With T44G G47C the figure was 0.0306; with T23G C40T, 0.864; with T29A T45G, 0.475.
Under G50C A57C stands 0.033; under G47A A48C, 0.723; under T25A A56T, 0.0445.
With C40A G46A the figure was 0.819; with A39C T45A, 0.778; with T25C C42A, 0.776.
In the case of T23A T25G, the fraction ligated came to 0.737.
Under G31T G34A stands 0.775.
With G34C T49C the figure was 0.0345.
With G34C T49A the figure was 0.776; with C42A A48T, 0.803.
Take A36T G55C: the fraction ligated came to 0.817.
Regarding A39G A56T, the fraction ligated was found to be 0.781.
With A24C C42A the figure was 0.779; with A24G A27G, 0.701.
With T25G C33A, the fraction ligated was 0.526.
With A27G T49A the figure was 0.721; with C42G G50A, 0.372; with T25G T35C, 0.785.
For the variant T35G T45G, the fraction ligated is 0.388.
Under T25C T29A stands 0.753; under T25A G47C, 0.0196.
With A37C T49G the figure was 0.797.
With C40T A48C the figure was 0.763.
Turning to T25G G31T, the fraction ligated was 0.0799.
Under T23A A41G stands 0.765.

For the origin of these results see the supplement of paper PMC6755084.
